Measurements taken from the supplement of paper PMC9170038.

Tested on: MS2 coat protein
Assay: apparent KD of MS2 coat protein; designed switch direction (-1 OFF switch, 1 ON switch): -1; higher = weaker reporter binding
Summary of the method: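 Apparent KD, taken as the median over clusters for each design, was obtained by curve-fitting normalised cluster fluorescence. Designed RNA switches had been transcribed on Illumina chips by stalled E. coli RNA polymerase and titrated with SNAP-549-labelled MS2 coat protein, doubling from 0.7 or 1.5 nM to 3 µM.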

[1] = Eterna round: R95, input ligand: FMN 200 uM
[2] = Eterna round: R95, input ligand: microRNA oligo, concentration not stated
[3] = Eterna round: R95, input ligand: none
[4] = input ligand: microRNA oligo, concentration not stated

Sequence	apparent KD of MS2 coat protein (input ligand: FMN 200 uM) [nM]	apparent KD of MS2 coat protein (input ligand: none) [nM]	apparent KD of MS2 coat protein [1] [nM]	apparent KD of MS2 coat protein [2] [nM]	apparent KD of MS2 coat protein [3] [nM]	apparent KD of MS2 coat protein [4] [nM]
GGUUUGGGAGGAUAUGGUUUUAAUAACAUGAGGAUCACCCAUGUAAAUAGAUCCUCAAGGCCAGAAGGCUCAAACC [-26.1, -25.22 kcal, A 33%] (Eterna round: R97, puzzle: Exclusion 5)	212	1980				
GGUUGGCGAGGAUAUACAUGAGGAUCACCCAUGUGAGAGAAAGAAGUGAGGAAGAAAAGUAGAAGGCGUUGACG [salish99_ex3_r3_053] (puzzle: Exclusion 3)			50.6	55.4	71.7	
UUCUGGACAGGAUAUGUACUUGAGCACUUGAGGAUCACCCAAGUCUUCAAGUACUCAGGCACAGAAGGGUUAAUUU [jl-ex5.4.66 ViennaUCT mod] (Eterna round: R97, puzzle: Exclusion 5)	58.9	25.4				
GUGUAAUGUGAGGAUAUGUGUUUCGUUAGCUGCACAGAAGGCACAACAUGAGGAUCACCCAUGUGGGCAGGGCC [Eternabot (L1) Solution 10] (Eterna round: R97, puzzle: Exclusion 6)	59.4	19				
CCGGUUGGCGCAGGAUAUACAUGAGGAUCACCCAUGUUCAUGAGCAUCAGCCAUGAGUUUUUGUUGUAGAAGGGUGGCCCGGCC (Eterna round: R96, puzzle: Exclusion NG 2)	19.6	23.5				15.6
GGACAGCGAGGAUAUACGUGUACGUUAUCCUCUAUGGGUCAACAUGAGGAUCACCCAUGUAGAAGGCGCAUAAU [Mabima] (puzzle: Exclusion 2)				18.7		
UGUACUAACACGGAAGUGUUAGUACUAUAAGCUUGUGUUACAUGAGGAUCACCCAUGUCCUCAUAAGCUCGUCUUAA [Mat - Sensor v3 - Turn-off var 2 - D73] (puzzle: Sensor v3, turn-off variant 2)			43.3	198	41	
CUAAAUCAUGUAGGAUAUGCGUAGCGAAGCUAUGCAGAAGGACAUGAGGAUCACCCAUGUUCUUCCGUCUGCGUACAGACGGAA [Mat - Exclusion NG 1 - Mod of JL - D29] (Eterna round: R96, puzzle: Exclusion NG 1)	337	38.2				29.1
GACUGCUGAGGAUAUACAUGAGGAUCACCCAUGUGCUUCAGCUACGAAAGUAGCAUUGGUAGAAGGUAGUAGUC [LRO-Excl3-05] (puzzle: Exclusion 3)				11.5		
CAUUAUGUUGAGGAUAUGCGCCGGAAAACUGACGCAGAAGGCGACACAUGAGGAUCACCCAUGUCAGUUCGCGA [salish99_ex6_r004_424] (Eterna round: R97, puzzle: Exclusion 6)	10.6	10.6				
AAUAAGUUAGGAUAUACAUGAGGAUCACCCAUGUCCCACCCGUUACCUAUGACCAUAUGUAGAAGGAGCAAUAA [Exy#2] (Eterna round: R97, puzzle: Exclusion 3)	62.1	32.7				
AUAAUGUAAGGAUAUCAGUCGUAAUUUAAUUUAAUAUCGACUGAGAAGGUACAUGAGGAUCACCCAUGUGGUCA [E4/9-B2] (Eterna round: R97, puzzle: Exclusion 4)	148	574				
AAUGCCGUAGGAUAUAUAUGGCAGAUCGCACGUCCUGAAAGACAUGAGGAUCACCCAUGUAGAAGGGCGGAAAC [Ceisisan] (puzzle: Exclusion 2)				14.1		
GCCCAGCUAGGAUAUCGCACUGCAGACAUGAGGAUCACCCAUGUGAUGAGGUCUGAAUCCCGAGAAGGAGCAUGGA [Enlain] (puzzle: Exclusion 5)				15.8		
AUAAAUCAUGUAGGAUAUGCGUGGCAAAGCUAUGCAGAAGGACAUGAGGAUCACCCAUGUGCUUCCGUCUGAGAACAGACGGUA [Mat - Exclusion NG 1 - Mod of JL - D24] (Eterna round: R96, puzzle: Exclusion NG 1)	130	82.3				61.6
AGAUGCUCGAGUCGACAUGAGGAUCACCCAUGUACAGUUAGUGAGGAUAUCGGAGACACAUAGUAUGAGAAGGCGCGAACGUGA [Ex NG3 #15] (Eterna round: R96, puzzle: Exclusion NG 3)	224	97.8				52.1
GUAAUUAUAUAGGAUAUCGAACUUAUAAUUUAACGAGAAGGAUGAACAUGAGGAUCACCCAUGUGGUAUCAUGG [JL-ex6-3.07] (puzzle: Exclusion 6)			131	207	284	
UGUUGUUCAGGAUAUGAAGUAUAUUACAUGAGGAUCACCCAUGUAGAUCCUGAAUAUACAUCAGAAGGGAAUAUUU [JR_Ex5_Sub057] (Eterna round: R97, puzzle: Exclusion 5)	51	21.1				

Sequence	apparent KD of MS2 coat protein (input ligand: FMN 200 uM) [nM]	apparent KD of MS2 coat protein (input ligand: none) [nM]	apparent KD of MS2 coat protein [1] [nM]	apparent KD of MS2 coat protein [2] [nM]	apparent KD of MS2 coat protein [3] [nM]	apparent KD of MS2 coat protein [4] [nM]
AGUAACCGUCACGAAAGUGAUGGUUACACAAGUAAUGAAACAUGAGGAUCACCCAUGUCCUCAUUUGCUCGUCUUAU [Sensor 3 - 39] (puzzle: Sensor v3, turn-off variant 2)			354	362	350	
GUGGGUUACAUGAGGAUCACCCAUGUAUAGUGGGAAAAAAUAUAGGAUAUAAUAUAAAAAUUAUAUUAGAAGGAUAGAGACUAG [AK ExNG3-1] (Eterna round: R96, puzzle: Exclusion NG 3)	419	418				216
UUUUUGUGAGGAUAUCAGUAGUAGAACAAUAGUACUACUACUGAGAAGGCACAUGAGGAUCACCCAUGUUCUUC [Fiskers Ex 4 Super stable 44 mod 11] (puzzle: Exclusion 4)				27.1		
AGACAGUCAGGAUAUACAUGAGGAUCACCCAUGUUAAGAAAAGAAAGGGCAGGAAGAGGUAGAAGGGACAAGAA [JR_Exclu3_Sub032] (puzzle: Exclusion 3)			28.8	28.5	32.8	
UAGGAGUCAGGAUAUGCGAGAGAUUGAAGUAAGGGAUGAGAGCAGAAGGGACAUGAGGAUCACCCAUGUAAGGA [JR_Exclu4_Sub092] (puzzle: Exclusion 4)			47.7	43.1	52	
ACACUGCGAGGAUAUACAUGAGGAUCACCCAUGUAUCGGUAGUCAAGGUUAAUUUAAGGUAGAAGGCGCGUAUU [JR_Ex3_Sub007] (Eterna round: R97, puzzle: Exclusion 3)	26.4	24				
GGAUCGAAUGUGAGGAUAUACCUAUGGAUACAUAGGUAGAAGGCACAUGAGGAUCACCCAUGUCCUAACGGUCC [Eli bmx4 4.14] (Eterna round: R97, puzzle: Brourd's mod of Exclusion 4)	479	347				
AUCAGUCUAGAGGAUAUGCUGGAUUAAUAUCUGGCAGAAGGCUGGACAUGAGGAUCACCCAUGUAAAUACUACC [Omei Ex6 A4] (Eterna round: R97, puzzle: Exclusion 6)	156	55				
GCAUGUCAGUAGGAUAUGCAGCACUUGAUACCUGCAGAAGGACUGACAUGAGGAUCACCCAUGUCUCGGGUGCU [EX6 A.10] (Eterna round: R97, puzzle: Exclusion 6)	16.8	149				
UAUACCACAGUUAGGAUAUUCUAAGUAGUAGCUAAGAAGAAGGAACAUGAGGAUCACCCAUGUGGAGCCAGCGU [Eternabot (L1) Solution 99] (Eterna round: R97, puzzle: Brourd's mod of Exclusion 4)	45.3	18.1				
AUACCAUGCCGCCUAAUAGCUUUUUGCUCGUCUUAUAAAACAUGAGGAUCACCCAUGUAAAACAUGUGGCGUGACCC [Maridi] (puzzle: Sensor v3, turn-off variant 2)			163	12.5	97.4	
CUGGUCCGAGGAUAUAUUAUGUGAUACAUGAGGAUCACCCAUGUUAUAUGAUGGAUGUUAGUAGAAGGCGGACUAC [salish99_ex5_r3_001] (puzzle: Exclusion 5)			102	69.9	101	
GACUGCUGAGGAUAUACAUGAGGAUCACCCAUGUGCUUCAGUAUCGAAAGAUACAUUGGUAGAAGGUAGUAGUC [LRO-Excl3-07] (puzzle: Exclusion 3)				11.1		
AAGAAACAUGAGGAUCACCCAUGUGAGGAUAUGAUGAAGAAAAGAAAAGAAAGAAGAUUCAGAAGGCACAAAGG [salish99-ex1_r3_055] (puzzle: Exclusion 1)			113	48.9	80.5	
GCAAAAUAUCAGGAUAUGACUAAUUGCGUUAAGUCAGAAGGGAUAACAUGAGGAUCACCCAUGUGAUAUAGUGU [JR_Ex6_Sub030] (Eterna round: R97, puzzle: Exclusion 6)	237	169				
UUGUUAUGUGUAGGAUAUGCGUGUUAUUAUUAUGCAGAAGGACAUGAGGAUCACCCAUGUGUAUUAUUAUUAUAUAUUAUAUAU [Title] (Eterna round: R96, puzzle: Exclusion NG 1)	20	19.9				15.8
ACAUGAGGAUCACCCAUGUCCGGCUGGUCUGUUCCGGCUGUCGAGGAUAUAGUUCGGUGUUCGCGCUAGAAGGCGGGAGCUGGA [Aenatbe mod 52] (Eterna round: R96, puzzle: Exclusion NG 3)	150	123				104
